Experiment [1] addresses ASP1-GST fusion protein (aspartic protease ASP-1 of C. elegans) (C. elegans) (UniProt G5EEI4). Nature of the experiment: ITC; 25 C, 20 mM HEPES pH 8.0; 21.16 uM Cry6Aa titrated into 2.20 uM ASP-1 in the cell, 20 injections of 10 uL.
The target is the same in experiment [2]. The experiment in a line: ELISA; plates coated with 0.5 ug ASP-1/well in 20 mM HEPES pH 8.0, blocked with PBST 3% BSA, increasing concentrations of biotinylated toxin; specific binding = total minus binding with 1000-fold molar excess of unlabeled Cry6Aa. On the technique in general: In an ELISA, binding on a coated surface is turned into a signal by an enzyme label.

“crystal protein Cry6Aa (unlabeled) (from UniProt Q45757 1-475) (natural protein)” had a Kd in experiment [1] of 126 nM. This lies in the sub-micromolar range.

In the case of “biotin-labeled crystal protein Cry6Aa (from UniProt Q45757 1-475) (natural protein)”, the Kd in experiment [2] came out at 146 nM.

The Kd is the concentration at which binding is half-saturated. Low values mean higher affinity, high ones lower affinity.

The values are drawn from PMC4721865.
